Measurements taken from the nanobody polyreactivity screen of Harvey et al. (2022).

assay: yeast display, Sf9 membrane polyspecificity reagent, FACS + sequencing; frameworks hold sequencing errors
Method in brief: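 A synthetic nanobody library was expressed on Saccharomyces cerevisiae BJ5465 by galactose induction for 36–48 hours. The library was stained for 1 hour at 4 °C with 10% biotinylated, detergent-solubilized Sf9 membrane reagent and enriched with streptavidin microbeads before FACS. Low and high (top ~1%) gates were set on anti-HA fluorescence for expression and streptavidin fluorescence for reagent binding, and each polyreactivity label reflects the gate of origin.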

Row | Sequence | polyreactivity (PSR sort gate)
1 | QVQLVESGGGLVQAGGSLRLSCAASGITFRYYAMGWYRQAPGKERELVAAISSGSSTYYADSVKGRFTISRDNAKNTVYLQMNSLKPEDTAVYYCAARTYTTSRATTVYKRLNYWGQGTQVTVSS | high polyreactivity
2 | QVQLVESGGGLVQAGGSLRLSCAASGITFRYYAMGWYRQAPGKERELVAAITGNGGGTYADSVKGRFTISRDNAKNTVYLQMNSLKPEVTAVYYCAADEPGLSWYDSYRYPDYGYDYWGQGTQVTVSS | low polyreactivity
3 | QVQLVESGGGLVQAGGSLRLSCAASGITFRYYAMGWYRQAPGKERELVATISWSGGSTYYADSVKGRFTISRDNAKNTVYLQMNSLKPEDTAVYYCNADWYRSAWSKYDYWGQGTQVTVSS | high polyreactivity
4 | QVQLVESGGGLVQAGGSLRLSCAASGITFRYYTMGWYRQAPGKERELVAVISWSGGSTYYADSVKGRFTISRDNAKNTVYLQMNSLKPEDTAVYYCAAVRRISRYDYWGQGTQVTVSS | high polyreactivity
5 | QVQLVESGGGLVQAGGSLRLSCAASGITFSFYAMGWYRQAPGKERELVADITRGGNTNYADSVKGRFTISRDNAKNTVYLQMNSLKPEDTAVYYCNARRRGAGGYDYWGQGTQVTVSS | high polyreactivity
6 | QVQLVESGGGLVQAGGSLRLSCAASGITFSHYAMGWYRQAPGKERELVAGITWSGGRTYYADSVKGRFTISRDNAKNTVYLQMNSLKPEDTAVYYCAPIHRTGYDMDYWGQGTQVTVSS | low polyreactivity
7 | QVQLVESGGGLVQAGGSLRLSCAASGITFSKYAMGWYRPAPGKERELVAAISSTASTNYADSVKGRFTISRDNAKHTVYFQMNSLKPEDTAVYYCNAGLFFQWFWTYDDYWGQGTQVTVSS | low polyreactivity
8 | QVQLVESGGGLVQAGGSLRLSCAASGITFSLYAMGWYRQAPGKERELVAAISKSGGSTYYADSVKGRFTISRDNAKNTVYLQMNSLKPEDTAVYYCAADFVSKTPWHAQDDYWGQGTQVTVSS | low polyreactivity
9 | QVQLVESGGGLVQAGGSLRLSCAASGITFSLYVMGWYRQAPGKERELVAAISTSGGSTYYADSVKGRFTISRDNAKNTVYLQMTSLKPEDTAVYYCAAVYVLSWYVQTYDYWGQGTQVTVSS | low polyreactivity
10 | QVQLVESGGGLVQAGGSLRLSCAASGITFSRNAMGWYRQAPGKERELVATITSGGSTNYADSVKGRFTISRDNAKNTVYLQMNSLKPEDTAVYYCNAVWNTFISGRSYDYWGQGTQVTVSS | low polyreactivity
11 | QVQLVESGGGLVQAGGSLRLSCAASGITFSRNVMGWYRQAPGKERELVAAISRSGGRTYYADSVKGRFTISRDTAKNTVYLQINSLKAEDTAVYYCNRDIGGTSVLDDYWGQGTQVTVSS | low polyreactivity
12 | QVQLVESGGGLVQAGGSLRLSCAASGITFSRYAMGWYRQAPGKERELVAAISSGGSTYYADSVKGRFTISRDNAKNTVYLQMNSLIPEDTAVYYCAADGLTGSKYRATGYYWGQGTQVTVSS | high polyreactivity
13 | QVQLVESGGGLVQAGGSLRLSCAASGITFSRYAMGWYRQAPGTERELVAAITSSGGSTYYADSVKGRFTISRDNAKNTVYLQMNSLKPEDTAVYYCAATSYYTREQYYYWGQGTQVTVSS | high polyreactivity
14 | QVQLVESGGGLVQAGGSLRLSCAASGITFSSNTRGCYRQATGNETELVAAISSSGGSTYYADSVKGRFTISRDNAKNTFYLQINSLKPEDTAVYYCNTVRFRGWVWWEYDYWGQGTQVTVSS | high polyreactivity
15 | QVQLVESGGGLVQAGGSLRLSCAASGITFSSYAMGWSRQAPGKERELVAAISSGGSTYYADSVKGRFTISRDNAKNTVYLQMNSLKPEDTAVYYCRPLVTLDWYKFGYWGQGTQVTVSS | low polyreactivity
16 | QVQLVESGGGLVQAGGSLRLSCAASGITFSSYTMGWYRQAPGKERELVAVISSGGSTNYADSVKGRFTISRDNAKNTVYLQMNSLKPEETAVYYCAARRSKYIPYYGKWYYRAFDYWGQGTQVSVSS | high polyreactivity
17 | QVQLVESGGGLVQAGGSLRLSCAASGITFSSYTMGWYRQARGKERELVAAISRTGGSTYYADSVKGRFTISRDNAKNTVYLQMNSLIPEDTAVYYCAARVAGRTLSGGDYWGQGTQVTVSS | high polyreactivity
18 | QVQLVESGGGLVQAGGSLRLSCAASGITFSSYVMGWYRQAPGKERELDAAISRSGGITYYADSVKGRFTISRDNAKNTVYLQMNSLKPEDTAVYYCAVRYYIYRPGGYDYWGQGTQVTVSS | high polyreactivity
19 | QVQLVESGGGLVQAGGSLRLSCAASGITFSVYAMGWYRQAPRKERELVASISSGGTSTYYADSVKGRFTISRDNAKNTVYLQMNSLKPEDTPVYYCAAYSYYTRDPYSYDYWGQGTQVTVSS | low polyreactivity
20 | QVQLVESGGGLVQAGGSLRLSCAASGITFSYYAMGWYRQAPGKERELVAAISRTGTSTYYADSVKGRFTISRDNAKNTVYLQMNSLKPEDTAVYYCAARYYYWGQGTQVTVSS | high polyreactivity
21 | QVQLVESGGGLVQAGGSLRLSCAASGITFSYYAMGWYRQAPGKERELVAAISWSGGTTYYADSVKGRFTISRDNAKNTVYLQMNSLKPEDTAVYYCAADGGAVGSDYWGQGTQVTVSS | high polyreactivity
22 | QVQLVESGGGLVQAGGSLRLSCAASGITFSYYAMGWYRQAPGKERELVAAISYTSGSTYYADSVKGRFTISRDNAKNTVYLQMNSLKPEDTAGYYCAARSRWSKQFRYDYWGQGTQVTVSS | high polyreactivity

Row | Sequence | polyreactivity (PSR sort gate)
23 | QVQLVESGGGLVQAGGSLRLSCAASGITFSYYAMGWYRQAPGKERELVATIRSSGGSTYYADSVKGRFTISRDNAKNTVYLQMNSLKPEDTAVYYCAVRLWFDYNYWGQGTQVTVSS | low polyreactivity
24 | QVQLVESGGGLVQAGGSLRLSCAASGITFSYYTLGWYRQAPGKERELFARINSGGTTNYADSVKGRFTISRDNAKNTVYLQMNSLKPEDTAVYYCAAEWVSWRWAHKFDYWGQGTQVTVSS | high polyreactivity
25 | QVQLVESGGGLVQAGGSLRLSCAASGITFTGYAMGWYRPAPGKERELGAAITWSSGSTYYADSVKGRFTISRDNAKNTVYLQMNSLKPEDTAVYYCAAEVNVGTLLLSVIVEDGDYWGQGTQVTVSS | low polyreactivity
26 | QVQLVESGGGLVQAGGSLRLSCAASGITFTGYAMGWYRQAPGKERELVAAISVSTVSTYYADSVKGRFTISRDNAKNTDYLQMTSLKPEDTAVYYCNADATDSYPEKDEHDSWGQGTQVTVSS | low polyreactivity
27 | QVQLVESGGGLVQAGGSLRLSCAASGITFTGYAMGWYRQAPGKERELVAVISETGGSTYADSVKGRFTISRDNAKNTVYLQMNSLKPEDTAVYYCAADPHDTVRHDALVELEYWGQGTQVTVSS | low polyreactivity
28 | QVQLVESGGGLVQAGGSLRLSCAASGITFTGYAMGWYRQAPGKERELVAVISETGGSTYADSVKGRFTISRDNAKNTVYLQMNSLKREDTAVYYCAARLWWPYSTAWAKMDYWGQGTQVTVSS | low polyreactivity
29 | QVQLVESGGGLVQAGGSLRLSCAASGITFTRYAMGWYRQAPGKEREFVAAIRRSGGNTYYADSVKGRFTISRDNAKNNVYLQRNSLKPEESAVYYCPASFRKTSPTRLVDYWGLGTQVTVSS | low polyreactivity
30 | QVQLVESGGGLVQAGGSLRLSCAASGITFTSYVMGWYRQAPGKERELVAAIRWSGGRTYYADSVKGRFTISRDNAKITVYLQMNSLKPEDTAVYYCNRVTRSHVDYWGQGTQVTLSS | high polyreactivity
31 | QVQLVESGGGLVQAGGSLRLSCAASGITFTVYAMGWYRQAPGKERELVAAITSTGSTNYADSVKGRSTISRDNAKNTVYLQMNSLKPEDTAVYYCAADRQITVYAYDYWGQGTQVTVSS | low polyreactivity
32 | QVQLVESGGGLVQAGGSLRLSCAASGITFTYYVMGWYRQAPGKERELVAAISSGGRTYYADSVKGRFTISRDNAKNTVYLEMNSLKPEDTAVYYCNADQYLRYFGRYYRSGEYWGQGTQVTVSS | high polyreactivity
33 | QVQLVESGGGLVQAGGSLRLSCAASGITFVFYAMGWYRQAPGKERELVATISYRGTSTYYADSVKGRFTISRDNAKNTVYLQMNSLKPEDTAVYYCAADTYIYYKTGYGYWGQGTQVTVSS | low polyreactivity
34 | QVQLVESGGGLVQAGGSLRLSCAASGITFVFYTMGWYRQAPGKERELVAAIARSGASTYYADSVKGRFTLSRDNAKNTVYLQMNSLKPEDTALYYGAADRGYRFRMDYWGQGTQVTVSS | high polyreactivity
35 | QVQLVESGGGLVQAGGSLRLSCAASGITFVFYTMGWYRQAPGKETELVAAISRSGASTYYADSVKGRFTISRDNAKNTVYLQMNSLKPEDTAVYYCAADRGYRFRMDYWGQGTQVTVST | high polyreactivity
36 | QVQLVESGGGLVQAGGSLRLSCAASGITFVGNAMGWYRQAPGKERELVAVISRGDSTNYADSVKGRFTISRDNAKNTVYLQMNSLKPEDTAVYYCAADGSRAGQEGNDYCGQGTQVTVSS | low polyreactivity
37 | QVQLVESGGGLVQAGGSLRLSCAASGITFVGNARGWYRQAPGKERELVAGIRGNGGSTYYADSVKGRFTISRDNAKNTVYLQMNSLKPEDTAVYYCAAAAYYADFDYWGQGTQVTVSS | low polyreactivity
38 | QVQLVESGGGLVQAGGSLRLSCAASGITFVHYAMGWYRQAPGKERELVAAITVGDGGTYYADSVKGRFTISRDNAKNTVYLQMNSLKPEDTAVYYCAAGFYSYSWYVKLAYGYWGQGIQVTVSS | low polyreactivity
39 | QVQLVESGGGLVQAGGSLRLSCAASGITFVLYAMGWYRQAPGKEREFVAAITNSGGSTYYADSVKGRFTISRDNAKNTVYLQMNSLKPEDTAVYYCAATRRRYRPYEYWGQGTQVTVSS | high polyreactivity
40 | QVQLVESGGGLVQAGGSLRLSCAASGITFVLYAMGWYRQAPGKERELVAAITWRGGSTYYADSVKGRFTISRDNAKNTVYLQMNSLKPEDTAVYYCAAVPFTSYRQGDYWGQGTQVTVSS | low polyreactivity
41 | QVQLVESGGGLVQAGGSLRLSCAASGITFVPNAMGWYRQAPGKERELVAAINNGGSTYYADSVKGRFTISRDNAKNTVYLQMNSLKPEDTAVYYCAAVSLSTVRGYYYWGQGTQVTVSS | low polyreactivity
42 | QVQLVESGGGLVQAGGSLRLSCAASGITFVQYAMGWYRQAPGKERELVAAITSDGRTYYADSVKGRFTISRDNAKNTVYLQMNSLKPEDTAVYYCAADVWRYTAYGGAYRRDYWGQGTQVTVSS | low polyreactivity
43 | QVQLVESGGGLVQAGGSLRLSCAASGITFVRNAMGWYRQAPGKEREFVAAISGSGVSTYADSVKGRFTISRDNAKNTVYLQMNSLKPEDTAVYYCARDFPWSYAWYDYWGQGTQVTVSS | low polyreactivity
